According to PMC8683085, “Serine ADP-ribosylation marks nucleosomes for ALC1-dependent chromatin remodeling” (eLife, 2021):

Biological target: unmodified nucleosome (UniProt P68431)

## ALC1 (full-length, 6xHis-1xFLAG-ALC1) (from UniProt Q86WJ1 1-897) (enzyme)
  ALC1 nucleosome remodeling rate constant (REA assay): < 0.0003 min⁻¹
